Measurements as given in patent US20240002514A1 (IGM BIOSCIENCES, published 2024).
Substitutions are numbered along the chain they refer to.

B1: 3C5-2G12 IgM antibody (antibody)
heavy: QVQLKESGPGLVAPSQSLSITCTVSGFSLTSYDISWVRQPPGKGLEWLGVIWTGVGTNYNSAFMSRLSISKDNSKSQVFLKMNSLQTDDTAMYYCVRDPYYYGMDYWGQGTSVTVSSGSASAPTLFPLVSCENSPSDTSSVAVGCLAQDFLPDSITFSWKYKNNSDISSTRGFPSVLRGGKYAATSQVLLPSKDVMQGTDEHVVCKVQHPNGNKEKNVPLPVIAELPPKVSVFVPPRDGFFGNPRKSKLICQATGFSPRQIQVSWLREGKQVGSGVTTDQVQAEAKESGPTTYKVTSTLTIKESDWLSQSMFTCRVDHRGLTFQQNASSMCVPDQDTAIRVFAIPPSFASIFLTKSTKLTCLVTDLTTYDSVTISWTRQNGEAVKTHTNISESHPNATFSAVGEASICEDDWNSGERFTCTVTHTDLPSPLKQTISRPKGVALHRPDVYLLPPAREQLNLRESATITCLVTGFSPADVFVQWMQRGQPLSPEKYVTSAPMPEPQAPGRYFAHSILTVSEEEWNTGETYTCVVAHEALPNRVTERTVDKSTGKPTLYNVSLVMSDTAGTCY
light: DIQMNQSPSSLSASLGDTITITCRASQDISIWLSWYQQKPGNIPELLIYKASNLHTGVPPRFSGSGSGTDFTLTISSLQPEDIATYYCLQSQSFPRTFGGGTKLEIKRTVAAPSVFIFPPSDEQLKSGTASVVCLLNNFYPREAKVQWKVDNALQSGNSQESVTEQDSKDSTYSLSSTLTLSKADYEKHKVYACEVTHQGLSSPVTKSFNRGEC
B2: 3C5-2G12 IgM + J antibody (antibody)
heavy: B1 heavy
light: B1 light
chain: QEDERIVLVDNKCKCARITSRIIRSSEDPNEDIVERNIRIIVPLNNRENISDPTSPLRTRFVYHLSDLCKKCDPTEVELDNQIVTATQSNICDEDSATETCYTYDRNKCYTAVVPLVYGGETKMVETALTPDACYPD
notes: also called 3C5.2G12 IgM+wtJ; 3C5.2G12 IgM+J chain
B3: 3C5-2G12 IgG1 antibody (antibody)
heavy: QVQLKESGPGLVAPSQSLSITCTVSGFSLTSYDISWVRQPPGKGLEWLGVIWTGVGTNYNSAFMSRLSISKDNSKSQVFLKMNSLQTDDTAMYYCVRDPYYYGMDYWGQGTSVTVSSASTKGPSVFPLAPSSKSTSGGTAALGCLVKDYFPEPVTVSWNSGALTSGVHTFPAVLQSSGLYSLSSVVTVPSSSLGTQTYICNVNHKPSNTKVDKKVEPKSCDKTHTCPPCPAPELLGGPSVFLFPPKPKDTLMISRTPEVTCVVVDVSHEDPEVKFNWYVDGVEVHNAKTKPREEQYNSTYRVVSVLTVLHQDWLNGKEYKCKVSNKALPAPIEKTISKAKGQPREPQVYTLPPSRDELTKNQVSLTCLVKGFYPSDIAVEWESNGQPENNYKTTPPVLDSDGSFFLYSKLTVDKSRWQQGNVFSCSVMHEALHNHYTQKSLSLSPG
light: B1 light
notes: also called 3C5 (IgG); 3C5 antibody (IgG format)
B4: h3C5H3-h3C5L2 (humanized 3C5, IgG) (antibody, V domains shown)
VH: QVQLQESGPGLVKPSETLSITCTVSGFSLTSYDISWVRQPPGKGLEWLGVIWTGVGTNYNPSFKSRLTISKDTSKNQVSLKMSSLTAADTAVYYCVRDPYYYGMDYWGQGTLVTVSS
VL: DIQMTQSPSSLSASVGDRITITCRASQDISIWLSWYQQKPGKAPKLLIYKASNLHTGVPSRFSGSGSGTDFTLTISSLQPEDFATYYCLQSQSFPRTFGQGTKLEIKR
B5: h3C5H1-h3C5L1 (humanized 3C5, IgG) (antibody, V domains shown)
VH: B4 VH with I20L, V37I, L48I, F63L, L67V, K71V, V78F, M82L, L85V, V96A
VL: B4 VL with I19V
B6: h3C5H2-h3C5L2 (humanized 3C5, IgG) (antibody, V domains shown)
VH: B4 VH with I20L, V37I, F63L, L67V, V78F, M82L, L85V, V96A
VL: B4 VL
B7: h3C5H4-h3C5L2 (humanized 3C5, IgG) (antibody, V domains shown)
VH: B4 VH with V37I, T73N
VL: B4 VL

What was measured:
[1] = target: T1, human PD-L1 expressed on the cell surface (CHO cells expressing human PD-L1; Promega CS187103 / 187103 cells) (human, UniProt Q9NZQ7 19-290); assay: cell-based or functional assay
[2] = target: T1, human PD-L1 expressed on the cell …; assay: cell-based or functional assay; remark: listed apart in the source
[3] = target: T1, human PD-L1 expressed on the cell …; assay: cell-based or functional assay; remark: listed apart in the source
[4] = target: T2, recombinant mouse PD-L1 Fc chimera (Sino Biologicals, cat #50010-M02H) (mouse, UniProt Q9EP73 19-238); assay: ELISA on directly coated mouse PD-L1 Fc chimera (1 ug/mL), detection anti-human kappa light chain-HRP
T2 construct: Fc part of the bought chimera not given
Experimental: (§1) Recombinant human PD-L1 Fc chimera (Sino Biological, cat #10084-H02H), recombinant cynomolgous monkey PD-L1 Fc chimera (Sino Biological, cat #90251-C02H), recombinant mouse PD-L1 Fc chimera (Sino Biologicals, cat #50010-M02H) and recombinant human PD-L2 Fc chimera protein (Sino Biological, cat #10292-H02H) were coated directly onto the ELISA plates at 1 ug/mL by overnight incubation at 4° C. The plates were washed 3× with PBS 0.05% TWEEN® and dried by tapping several times on paper towels. All the plates were blocked with 200 uL of 1% milk for 1 hr at RT. […] Fifty μL of the diluted antibodies were added to the respective wells in all the plates. Positive control antibody (mouse anti-human PD-L1, 29E.2A3, (BioLegend, cat #329702) and its isotype control mouse IgG2b k (BioLegend, cat #400302) were serially diluted 3-fold in 1% milk starting at 3 ug/mL to 0.1 ng/mL and 50 uL of the titrated antibodies were added to their respective plates/wells. Similarly rat anti mouse PD-L1 (BioLegend, cat #124302) and rat IgG2b isotype (BioLegend, cat #400622), anti-human PD-L2 (BioLegend, cat #345502) with mouse IgG1 isotype (BioLegend, cat #4011402) were titrated as above and added to its respective plates/wells. The plates were incubated for 1 hr at RT. […] For the control wells, appropriate secondary antibodies, goat anti mouse HRP (Southern Biotech, cat #1033) and mouse anti rat HRP (Southern Biotech, cat #3070-05), were diluted and incubated as above. After repeating the wash and drying step, the plates were developed for 20-30 min with 50 uL TMB substrate (BD OPTEIA®, cat #555214). The reaction was stopped with 50 uL of 2N H2SO4 and absorbance at 450 nm was read on a SPECTRAMAX® Gemini™ spectrophotometer.

[5] = target: T3, recombinant human PD-L2 Fc chimera protein (Sino Biological, cat #10292-H02H) (human, UniProt Q9BQ51 20-219); assay: ELISA on directly coated human PD-L2 Fc chimera (1 ug/mL), detection anti-human kappa light chain-HRP
T3 construct: Fc part of the bought chimera not given
T3 sequence (looked up): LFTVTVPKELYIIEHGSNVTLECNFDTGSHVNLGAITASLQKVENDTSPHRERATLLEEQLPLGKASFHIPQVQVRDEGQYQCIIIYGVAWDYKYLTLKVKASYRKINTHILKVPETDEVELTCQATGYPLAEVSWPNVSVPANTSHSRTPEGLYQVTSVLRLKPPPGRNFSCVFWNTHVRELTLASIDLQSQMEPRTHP
Experimental: as §1

[6] = target: T4, recombinant cynomolgus monkey PD-L1 Fc chimera (Sino Biological, cat #90251-C02H) (cynomolgus monkey, UniProt G7PSE7 19-239); assay: ELISA on directly coated cynomolgus PD-L1 Fc chimera (1 ug/mL), detection anti-human kappa light chain-HRP
T4 construct: also called Cyno PD-L1; Fc part of the bought chimera not given
Experimental: as §1

[7] = target: T1, human PD-L1 expressed on the cell …; assay: flow cytometry competition on CHO cells expressing human PD-L1; cells pre-incubated with unlabeled antibody, then Alexa Fluor 647-labeled S70 (1 µg/mL)
Experimental: (§2) Antibody cross-blocking analysis was conducted by the following method. […] Fluorescent staining intensities were determined using the FACSCalibur™ system. Competition of by the identical antibody was a positive control while the lack of competition by the irrelevant antibody was a negative control.

[8] = target: T1, human PD-L1 expressed on the cell …; assay: flow cytometry competition on CHO cells expressing human PD-L1; cells pre-incubated with unlabeled antibody, then Alexa Fluor 647-labeled 3C5 (1 µg/mL)
Experimental: as §2

T1 sequence (Q9NZQ7 19-290): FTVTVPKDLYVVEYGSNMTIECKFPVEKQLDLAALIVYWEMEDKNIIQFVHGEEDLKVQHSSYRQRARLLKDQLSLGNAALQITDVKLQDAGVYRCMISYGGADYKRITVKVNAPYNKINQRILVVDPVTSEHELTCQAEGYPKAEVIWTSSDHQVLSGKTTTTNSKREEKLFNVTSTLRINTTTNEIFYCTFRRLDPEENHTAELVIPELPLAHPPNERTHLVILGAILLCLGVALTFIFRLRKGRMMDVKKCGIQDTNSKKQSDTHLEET
T2 sequence (Q9EP73 19-238, stated change not applied): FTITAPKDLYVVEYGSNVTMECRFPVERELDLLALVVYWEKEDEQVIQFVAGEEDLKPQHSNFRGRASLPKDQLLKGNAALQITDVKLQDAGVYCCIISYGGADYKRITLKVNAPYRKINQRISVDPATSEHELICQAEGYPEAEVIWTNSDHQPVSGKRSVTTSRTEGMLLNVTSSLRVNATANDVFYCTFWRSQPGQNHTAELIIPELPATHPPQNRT
T4 sequence (G7PSE7 entry or part of it C02H C02H): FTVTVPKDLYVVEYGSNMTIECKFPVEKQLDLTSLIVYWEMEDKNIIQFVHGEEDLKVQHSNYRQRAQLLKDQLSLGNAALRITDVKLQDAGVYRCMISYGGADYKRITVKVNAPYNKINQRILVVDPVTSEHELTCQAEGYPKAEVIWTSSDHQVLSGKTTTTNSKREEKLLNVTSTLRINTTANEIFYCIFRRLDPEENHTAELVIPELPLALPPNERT

| Binder | EC50 in the PD-1/PD-L1 blockade assay (luciferase reporter activity, 4 parameter curve fit) [1] | EC50, PD-1/PD-L1 blockade (% PDL1 Blockade, NFAT-luciferase reporter) [2] | EC50, PD-1/PD-L1 blockade (PDL1 Blockade, luciferase signal) [3] | binding result [4] | binding result [5] | EC50 (read off the curve) [6] | IC50 (read off the curve) [7] | IC50 (read off the curve) [8] |
| --- | --- | --- | --- | --- | --- | --- | --- | --- |
| B1 | 61000 nM | 0.061 nM | 0.094 nM | no binding (tested: 3 ug/mL) | no binding (tested: 3 ug/mL) | ~7 ng/mL |  |  |
| B2 | 96000 nM | 0.096 nM |  | no binding (tested: 3 ug/mL) | no binding (tested: 3 ug/mL) | ~8 ng/mL |  |  |
| B3 |  | 0.21 nM | 0.251 nM | no binding (tested: 3 ug/mL) | no binding (tested: 3 ug/mL) | ~6 ng/mL | ~20 ng/mL | ~10 ng/mL |
| B4 |  |  | 0.214 nM |  |  |  |  |  |
| B5 |  |  | 0.221 nM |  |  |  |  |  |
| B6 |  |  | 0.381 nM |  |  |  |  |  |
| B7 |  |  | 0.296 nM |  |  |  |  |  |
